Results from US20130079286A1 (Pieris, published 2013).

How the values were obtained:
[1] = molecular target: T1, Aβ40 peptide, non-labeled (human); assay: SPOT membrane of overlapping Aβ40 peptides, 50 nM mutein
T1 construct: Non-labeled synthetic peptide (W. M. Keck Laboratory); also called Abeta40; amyloid beta peptide

[2] = molecular target: T2, central peptide Aβ16-27; assay: capture ELISA: mutein captured, Aβ16-27 titrated
T2 construct: Bought from the Peptide Speciality Laboratory
T2 peptide: KLVFFAEDVGSN

[3] = molecular target: T3, MBP-Aβ40 fusion protein; assay: SPR (Biacore), MBP-Aβ40 amine-coupled (1455 RU), mutein as analyte
T3 construct: the entry may be a nucleic acid; Biotin-labelled in the capture ELISA, unlabeled in the direct ELISA and SPR; also called MBP-Abeta40
Procedure: FIG. 8 depicts the kinetic real time analysis of Lcn2 muteins S1-A4 (A) and US7 (B) measured on a Biacore instrument at a flow rate of 10 μl/min. The MBP-Aβ40 fusion protein was coupled via amine chemistry on a CMD 200I chip (ΔRU=1455) and each of the purified Lcn2 muteins was applied in a series at different concentrations. The measured signal is shown as a grey line whereas the curve fit is depicted as a black line in each case.
(§1) Real time analysis of Lcn2 muteins was performed on a Biacore X system (Biacore, Uppsala, Sweden) using PBS/T (PBS containing 0.005% (v/v) Tween 20) as running buffer. A 50 μg/mL solution of MBP-Aβ40 from Example 2 in 10 mM Na-acetate, pH 4.5 was immobilized onto a […] chip (Xantec, Düsseldorf, Germany) using standard amine coupling chemistry, resulting in a ligand density of 1455 resonance units (RU). […] The sensorgrams were corrected by subtraction of the corresponding signals measured for the control channel, which had been activated and blocked with ethanolamine. […] During this step the kₒₙ and koff rates were fitted globally, while the maximum response difference Rₘₐₓ was fitted locally for each curve.

[4] = molecular target: T3, MBP-Aβ40 fusion protein; assay: capture ELISA: mutein captured, biotinylated MBP-Aβ40 titrated
Procedure: (§2) FIG. 5 depicts the binding activity of the Lcn2 muteins H1-G1, S1-A4, and US7 in capture ELISAs with different biotinylated Aβ targets. StrepMAB-Immo at 10 μg/ml was immobilized on microtitre plates and employed for capturing of 1 JAM Lcn2 muteins via the Strep-tag H. In figures A to C the binding of the Lcn2 muteins S1-A4 and US7 to (A) biotinylated Aβ40, (B) biotinylated Trx-Aβ28, and (C) biotinylated MBP-Aβ40 are shown. Binding was detected by incubation with ExtrAvidin/AP and a subsequent chromogenic reaction with pNPP. Ovalbumin (Ova), thioredoxin (Trx), and maltose binding protein (MBP) were used as negative controls. Additionally, binding of wild-type (wt) lipocalin was tested. The data were fitted to a monovalent binding model.
For selective capturing of the Lcn2 muteins carrying the C-terminal Strep-tag II (Schmidt and Skerra (2007) Nat. Protoc. 2, 1528-1535), a 96-well MaxiSorp polystyrene microtitre plate (Nunc, Langenselbold, Germany) was coated with 10 μg/mL StrepMAB-Immo (IBA, Göttingen, Germany) in PBS over night at 4° C. and blocked with 3% (w/v) BSA in PBS/T at room temperature for 1 h. After 3 washing steps with PBS/T, 50 μL of a 1 μM solution of the purified Lcn2 muteins from Example 7 were applied to all wells for 1 h. […]

[5] = molecular target: T4, ovalbumin (UniProt P01012 2-386); assay: capture ELISA: 1 µM Lcn2 protein captured via Strep-tag II on coated StrepMAB-Immo, biotinylated target titrated, ExtrAvidin/AP + pNPP
T4 sequence (looked up): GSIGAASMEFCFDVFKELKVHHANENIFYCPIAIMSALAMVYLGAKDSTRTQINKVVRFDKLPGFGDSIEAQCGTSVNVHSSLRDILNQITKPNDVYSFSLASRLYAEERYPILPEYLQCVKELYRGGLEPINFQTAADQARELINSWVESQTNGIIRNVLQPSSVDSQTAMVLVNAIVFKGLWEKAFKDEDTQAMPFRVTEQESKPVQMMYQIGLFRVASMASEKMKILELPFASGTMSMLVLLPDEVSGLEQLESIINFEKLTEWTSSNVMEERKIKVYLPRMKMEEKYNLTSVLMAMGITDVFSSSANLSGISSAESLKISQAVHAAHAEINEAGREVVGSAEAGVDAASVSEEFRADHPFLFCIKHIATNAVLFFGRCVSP
Procedure: as §2
(§3) For selective capturing of the Lcn2 muteins carrying the C-terminal Strep-tag II (Schmidt and Skerra (2007) Nat. Protoc. 2, 1528-1535), a 96-well MaxiSorp polystyrene microtitre plate (Nunc, Langenselbold, Germany) was coated with 10 μg/mL StrepMAB-Immo (IBA, Göttingen, Germany) in PBS over night at 4° C. and blocked with 3% (w/v) BSA in PBS/T at room temperature for 1 h. After 3 washing steps with PBS/T, 50 μL of a 1 μM solution of the purified Lcn2 muteins from Example 7 were applied to all wells for 1 h. After washing, 50 μL of a dilution series of the biotinylated targets Aβ40, MBP-Aβ40 or Trx-Aβ28 from Example 2 were added and incubated for 1 h whereby the biotinylated forms of Ova, MBP and Trx from Example 2 served as negative control proteins. The wells were washed again and bound conjugate was detected with 50 μL of ExtrAvidin/AP conjugate (Sigma-Aldrich, Steinheim, Germany) diluted 1:5000 in PBS/T for 1 h, followed by signal development in the presence of 100 μL 0.5 mg/mL p-nitrophenyl phosphate (AppliChem, Darmstadt, Germany) in 100 mM Tris/HCl, pH 8.8, 100 mM NaCl, 5 mM MgCl₂.

[6] = molecular target: T3, MBP-Aβ40 fusion protein; assay: direct ELISA: MBP-Aβ40 coated, mutein titrated, detected via Strep-tag II
Procedure: The Aβ targets Trx-Aβ28 and MBP-Aβ40 as well as the control protein maltose binding protein (MBP) were immobilized at 2 μM in PBS over night. Bound Lcn2 muteins were detected via their Strep-tag II using Streptavidin/AP followed by a chromogenic reaction with pNPP. As a control, the binding of wild-type (wt) lipocalin was tested. The data were fitted to a monovalent binding model.
Alternatively, for a “direct” ELISA, 2 μM unlabeled Aβ40 target from Example 2 was adsorbed onto a 96-well MaxiSorp polystyrene microliter plate (Nunc, Langenselbold, Germany) and incubated with the purified Lcn2 mutein, which was detected via the Strep-tag II using a 1:1500 dilution of Streptavidin/AP conjugate (GE Healthcare UK Ltd, Buckinghamshire, UK). As a control, 2 μM MBP from Example 2 was adsorbed onto the ELISA plate. Absorption at 405 nm was measured in a SpectraMax 250 reader (Molecular Devices, Sunnyvale, USA).

[7] = molecular target: T3, MBP-Aβ40 fusion protein; assay: SPR (Biacore X), MBP-Aβ40 amine-coupled, mutein as analyte
Procedure: as §1

[8] = molecular target: T5, biotinylated Aβ40 peptide (human, C-terminal biotin group attached via a lysine spacer); assay: capture ELISA: mutein captured via Strep-tag II on StrepMAB-Immo, biotinylated Aβ40 titrated
T5 construct: Synthetic peptide (Peptide Speciality Laboratory) with a C-terminal biotin on a lysine spacer; used in the capture ELISAs
Procedure: as §2, §3

T1 sequence (peptide, as listed by the source): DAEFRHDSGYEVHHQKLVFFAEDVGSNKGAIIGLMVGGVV
T5 sequence (peptide, as listed by the source): as above

B1: Lcn2 mutein S1-A4 (designed binder)
chain: QDSTSDLIPAPPLSKVPLQQNFQDNQFHGKWYVVGVAGNYTLREDKDPLKMYATIYELKEDKSYNVTSVGFRLKKCNYKIRTFVPGSQPGEFTLGIIKSQPGMTSYLVRVVSTNYNQHAMVFFKTVGQNREMFNITLYGRTKELTSELKENFIRFSKSLGLPENHIVFPVPIDQCIDG
Question: Does B1 bind [1]?
Answer: Result: binds

Question: And the Kd [2]?
Answer: The Kd was 2.6 nM.

Question: And the koff [3]?
Answer: The koff was 8.36e-05 s⁻¹.

Question: And the kon [3]?
Answer: Its kon is 48000 M⁻¹ s⁻¹.

Question: What about the Kd [4] of the same binder?
Answer: The Kd was 4.7 nM.

Question: Does B1 bind [5]?
Answer: Result: no binding (tested: 250 nM)

Question: And the Kd [6]?
Answer: Its Kd is 149 nM.

Question: And the Kd [7]?
Answer: Its Kd is 1.7 nM.

Question: What about the Kd [8] of the same binder?
Answer: Its Kd is 2.7 nM.
